Among the data in publication PMC11551757, “Phylogenomic instructed target analysis reveals ELAV complex binding to multiple optimally spaced U-rich motifs” are Kd and binding signal values, retold here.

The target of data set [1] is T1, ELAV (rELAV) (Drosophila melanogaster?) (UniProt P16914).
T1 sequence: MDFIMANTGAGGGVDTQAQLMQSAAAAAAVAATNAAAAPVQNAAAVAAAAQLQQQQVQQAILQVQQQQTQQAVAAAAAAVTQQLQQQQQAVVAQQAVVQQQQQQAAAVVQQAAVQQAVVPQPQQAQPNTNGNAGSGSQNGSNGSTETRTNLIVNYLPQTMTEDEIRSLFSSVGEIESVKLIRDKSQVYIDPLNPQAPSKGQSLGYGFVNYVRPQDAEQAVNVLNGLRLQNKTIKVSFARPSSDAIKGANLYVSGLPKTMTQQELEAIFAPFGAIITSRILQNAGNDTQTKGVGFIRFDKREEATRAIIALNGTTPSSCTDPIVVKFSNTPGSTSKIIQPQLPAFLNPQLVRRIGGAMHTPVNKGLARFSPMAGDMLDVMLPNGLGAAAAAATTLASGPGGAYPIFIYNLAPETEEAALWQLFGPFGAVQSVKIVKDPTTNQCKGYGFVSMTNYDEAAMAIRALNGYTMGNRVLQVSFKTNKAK
Description: EMSA. The conditions noted are these: EMSA: 50 mM Tris-HCl pH 7.5, 60 mM NaCl, 25 ug/ml tRNA, 0.5 mM DTT, 50 ug/ml acetylated BSA, 20 min; 4-6% native gel in 0.5x TBE at 4 C. Footprinting: ….

The target of data set [2] is T2, ELAV (rELAV) (UniProt P16914 1-483).
T2 sequence: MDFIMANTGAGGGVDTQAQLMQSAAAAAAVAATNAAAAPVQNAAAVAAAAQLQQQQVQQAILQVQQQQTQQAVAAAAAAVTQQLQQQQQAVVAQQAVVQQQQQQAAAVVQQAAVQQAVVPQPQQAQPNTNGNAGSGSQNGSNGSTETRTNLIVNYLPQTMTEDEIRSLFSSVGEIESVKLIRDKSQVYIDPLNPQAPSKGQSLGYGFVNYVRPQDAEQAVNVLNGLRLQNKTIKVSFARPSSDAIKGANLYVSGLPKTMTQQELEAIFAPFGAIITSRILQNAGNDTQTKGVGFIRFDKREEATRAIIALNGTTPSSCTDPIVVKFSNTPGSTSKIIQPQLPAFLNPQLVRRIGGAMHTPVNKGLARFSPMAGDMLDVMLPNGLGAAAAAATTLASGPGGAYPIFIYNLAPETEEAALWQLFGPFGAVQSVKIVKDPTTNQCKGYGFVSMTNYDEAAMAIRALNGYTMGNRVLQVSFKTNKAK
Description: EMSA; EMSA: 50 mM Tris-HCl pH 7.5, 60 mM NaCl, 25 ug/ml tRNA, 0.5 mM DTT, 50 ug/ml acetylated BSA, 20 min; 4-6% native gel in 0.5x TBE at 4 C. Footprinting: complexes formed as for EMSA, 15 min at room temperature. The following applies: protein: recombinant; tags: GST tag, cleaved off with PreScission protease. Background: A gel shift assay detects complexes by their altered migration in electrophoresis.

In the data set with ELAV (rELAV) [1], Teh2 RNA yielded a Kd of 430 nM.
The same measure, in the same setting: then CG4662 RNA, with 80 nM; and 5PtaseI RNA, with 24 nM.
As to Ect4 RNA, the Kd in the data set with ELAV (rELAV) [1] stood at 100 nM.
Consider GAAGCUAUUAUACAUUUUAUCUUAUAACUCUAUACUUUAUGUU (ssRNA) [M7H A(CU)2 in m3r], for which the binding signal with ELAV (rELAV) [2] was 2.5 fold lower affinity than M7H.

As a reminder, the Kd is the constant that tells how readily two partners part at equilibrium. A high value points to lower affinity.
